Among the data in paper PMC4491848 are ristocetin-induced platelet aggregation rate in human platelet-rich plasma, dose series up to 3 μg/ml; value values, retold here.

The target in the test is platelet membrane glycoprotein (GP) Ib on human platelets (human (endogenous in platelets)) (UniProt P07359).
Chain of UniProt P07359 (P07359 17-652, chain 1 of 2): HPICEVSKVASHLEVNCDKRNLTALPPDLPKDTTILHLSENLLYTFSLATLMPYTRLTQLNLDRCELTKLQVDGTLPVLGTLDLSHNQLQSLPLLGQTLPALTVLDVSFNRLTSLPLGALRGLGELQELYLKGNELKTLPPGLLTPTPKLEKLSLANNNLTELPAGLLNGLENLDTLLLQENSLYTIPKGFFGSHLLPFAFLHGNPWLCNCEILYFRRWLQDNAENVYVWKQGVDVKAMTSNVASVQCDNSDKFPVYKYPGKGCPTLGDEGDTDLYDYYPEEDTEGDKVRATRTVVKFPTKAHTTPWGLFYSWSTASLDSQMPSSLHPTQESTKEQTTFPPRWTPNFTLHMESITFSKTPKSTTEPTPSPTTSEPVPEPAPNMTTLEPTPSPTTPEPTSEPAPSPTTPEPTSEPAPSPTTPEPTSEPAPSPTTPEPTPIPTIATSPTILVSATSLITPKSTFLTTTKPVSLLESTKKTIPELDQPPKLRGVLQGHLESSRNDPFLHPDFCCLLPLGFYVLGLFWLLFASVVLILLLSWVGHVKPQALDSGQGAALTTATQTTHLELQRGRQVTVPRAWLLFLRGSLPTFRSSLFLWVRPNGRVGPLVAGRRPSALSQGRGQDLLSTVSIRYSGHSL
Chain of UniProt P07359 (P13224 26-206, chain 2 of 2, further chain): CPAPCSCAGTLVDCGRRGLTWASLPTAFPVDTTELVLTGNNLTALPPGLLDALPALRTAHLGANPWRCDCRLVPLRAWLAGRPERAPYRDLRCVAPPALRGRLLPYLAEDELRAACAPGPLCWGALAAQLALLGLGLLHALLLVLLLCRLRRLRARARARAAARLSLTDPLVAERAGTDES

Consider natural Agkisacutacin (complex), for which the ristocetin-induced platelet aggregation rate in human platelet-rich plasma, dose series up to 3 μg/ml; value at the 3 μg/ml dose; the pair said to be blocked is GPIb and vWF is 3.46%.

Substance recombinant Agkisacutacin (complex) had a ristocetin-induced platelet aggregation rate in human platelet-rich plasma, dose series up to 3 μg/ml; value at the 3 μg/ml dose; the pair said to be blocked is GPIb and vWF of 5.65%.
